{"source": "patent US20170073659", "proteins": {"B1": {"name": "caspase-8 (protein)", "chain": "MDFSRNLYDIGEQLDSEDLASLKFLSLDYIPQRKQEPIKDALMLFQRLQEKRMLEESNLSFLKELLFRINRLDLLITYLNTRKEEMERELQTPGRAQISAYRVMLYQISEEVSRSELRSFKFLLQEEISKCKLDDDMNLLDIFIEMEKRVILGEGKLDILKRVCAQINKSLLKIINDYEEFSKERSSSLEGSPDEFSNGEELCGVMTISDSPREQDSESQTLDKVYQMKSKPRGYCLIINNHNFAKAREKVPKLHSIRDRNGTHLDAGALTTTFEELHFEIKPHDDCTVEQIYEILKIYQLMDHSNMDCFICCILSHGDKGIIYGTDGQEAPIYELTSQFTGLKCPSLAGKPKVFFIQACQGDNYQKGIPVETDSEEQPYLEMDLSSPQTRYIPDEADFLLGMATVNNCVSYRNPAEGTWYIQSLCQSLRERCPRGDDILTILTEVNYEVSNKDDKKNMGKQMPQPTFTLRKKLVFPSD"}}, "target": "GFP-KRS"}
{"protein": "B1", "values": [{"measurement": "amount of KRS cleaved after caspase-8 overexpression (western blot with anti-GFP antibody)", "value": "the amount of KRS cleaved was increased with the increasing amount of caspase-8"}]}
